Measurements taken from paper PMC13225219.

Molecular target: GST-Drak (435-532) (Drosophila melanogaster) (UniProt Q0KHT7)
Assay: pull-down; GST-Drak on glutathione agarose; 100 µl of 0.2-10 µM Filamin fragment, 20 min on ice in 20 mM Tris-HCl pH 7.5, 100 mM NaCl, 1 mM DTT; washed with PBS; stain-free SDS-PAGE, Filamin to Drak band ratio

UniProt Q0KHT7, sequence (Q0KHT7 435-532): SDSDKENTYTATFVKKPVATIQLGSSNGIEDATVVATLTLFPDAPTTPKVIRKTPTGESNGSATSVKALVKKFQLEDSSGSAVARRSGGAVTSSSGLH

Filamin-open (five-domain Drosophila Filamin fragment Cher15-19openMSR) (domain or fragment)
fold bound against the wild-type Filamin fragment: 10 fold
